# Measured values as given in patent US20090143308A1.
# How the values were obtained:
# Test in all cases: cell-based or functional assay
# [1] = biological target: Candida albicans Cdr1p as expressed in S. cerevisiae AD1002 (CDR1 of plasmid pKEN1002) (Candida albicans) (UniProt P43071)
# [2] = biological target: S. cerevisiae plasma membrane H+-ATPase (Pma1p) (Saccharomyces cerevisiae) (UniProt P05030)
# [3] = biological target: Saccharomyces cerevisiae Pdr5p (over-expressed in strain AD124567) (Saccharomyces cerevisiae) (UniProt P33302)
# Sequence of Saccharomyces cerevisiae Pdr5p (over-expressed in strain AD124567) (Saccharomyces cerevisiae) (P33302 whole entry): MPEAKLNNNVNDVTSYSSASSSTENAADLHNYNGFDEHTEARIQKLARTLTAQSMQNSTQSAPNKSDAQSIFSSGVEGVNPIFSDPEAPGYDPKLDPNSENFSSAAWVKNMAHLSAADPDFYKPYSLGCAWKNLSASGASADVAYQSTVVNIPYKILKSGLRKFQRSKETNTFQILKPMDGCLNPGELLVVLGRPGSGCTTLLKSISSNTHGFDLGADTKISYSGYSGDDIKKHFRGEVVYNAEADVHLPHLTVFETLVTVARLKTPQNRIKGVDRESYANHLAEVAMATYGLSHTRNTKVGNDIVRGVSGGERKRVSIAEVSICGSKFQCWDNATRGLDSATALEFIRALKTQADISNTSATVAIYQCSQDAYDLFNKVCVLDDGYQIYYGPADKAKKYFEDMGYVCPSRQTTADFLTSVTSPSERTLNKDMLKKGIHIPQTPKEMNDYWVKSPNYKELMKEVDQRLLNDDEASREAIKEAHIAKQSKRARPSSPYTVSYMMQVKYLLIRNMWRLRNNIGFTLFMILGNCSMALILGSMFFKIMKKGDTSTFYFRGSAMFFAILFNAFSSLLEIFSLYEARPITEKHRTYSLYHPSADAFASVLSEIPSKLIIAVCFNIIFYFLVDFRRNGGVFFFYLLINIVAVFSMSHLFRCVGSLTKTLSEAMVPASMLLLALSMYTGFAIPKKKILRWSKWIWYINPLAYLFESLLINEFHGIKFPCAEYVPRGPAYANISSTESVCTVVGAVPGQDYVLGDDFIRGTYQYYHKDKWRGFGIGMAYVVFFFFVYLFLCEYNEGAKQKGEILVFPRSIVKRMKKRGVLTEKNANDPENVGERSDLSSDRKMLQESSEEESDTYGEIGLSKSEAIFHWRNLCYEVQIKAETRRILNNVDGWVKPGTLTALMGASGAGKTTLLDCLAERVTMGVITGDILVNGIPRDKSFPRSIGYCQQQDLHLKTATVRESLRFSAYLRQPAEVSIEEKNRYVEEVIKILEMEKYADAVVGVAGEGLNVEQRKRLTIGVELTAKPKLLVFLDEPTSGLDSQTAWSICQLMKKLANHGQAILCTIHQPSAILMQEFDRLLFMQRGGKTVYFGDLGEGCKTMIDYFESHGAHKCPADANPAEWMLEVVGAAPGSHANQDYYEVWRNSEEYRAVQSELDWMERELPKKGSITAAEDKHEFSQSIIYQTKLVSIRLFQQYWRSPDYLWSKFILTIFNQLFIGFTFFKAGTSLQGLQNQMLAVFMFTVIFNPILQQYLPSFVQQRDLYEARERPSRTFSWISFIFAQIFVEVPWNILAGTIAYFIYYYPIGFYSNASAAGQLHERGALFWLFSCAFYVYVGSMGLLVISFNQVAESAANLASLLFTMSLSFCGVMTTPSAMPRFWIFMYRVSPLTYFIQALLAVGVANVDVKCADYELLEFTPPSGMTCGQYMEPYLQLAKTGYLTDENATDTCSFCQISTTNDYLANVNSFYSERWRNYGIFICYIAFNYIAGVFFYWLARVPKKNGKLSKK
# Sequence of Candida albicans Cdr1p as expressed in S. cerevisiae AD1002 (CDR1 of plasmid pKEN1002) (Candida albicans) (P43071 whole entry): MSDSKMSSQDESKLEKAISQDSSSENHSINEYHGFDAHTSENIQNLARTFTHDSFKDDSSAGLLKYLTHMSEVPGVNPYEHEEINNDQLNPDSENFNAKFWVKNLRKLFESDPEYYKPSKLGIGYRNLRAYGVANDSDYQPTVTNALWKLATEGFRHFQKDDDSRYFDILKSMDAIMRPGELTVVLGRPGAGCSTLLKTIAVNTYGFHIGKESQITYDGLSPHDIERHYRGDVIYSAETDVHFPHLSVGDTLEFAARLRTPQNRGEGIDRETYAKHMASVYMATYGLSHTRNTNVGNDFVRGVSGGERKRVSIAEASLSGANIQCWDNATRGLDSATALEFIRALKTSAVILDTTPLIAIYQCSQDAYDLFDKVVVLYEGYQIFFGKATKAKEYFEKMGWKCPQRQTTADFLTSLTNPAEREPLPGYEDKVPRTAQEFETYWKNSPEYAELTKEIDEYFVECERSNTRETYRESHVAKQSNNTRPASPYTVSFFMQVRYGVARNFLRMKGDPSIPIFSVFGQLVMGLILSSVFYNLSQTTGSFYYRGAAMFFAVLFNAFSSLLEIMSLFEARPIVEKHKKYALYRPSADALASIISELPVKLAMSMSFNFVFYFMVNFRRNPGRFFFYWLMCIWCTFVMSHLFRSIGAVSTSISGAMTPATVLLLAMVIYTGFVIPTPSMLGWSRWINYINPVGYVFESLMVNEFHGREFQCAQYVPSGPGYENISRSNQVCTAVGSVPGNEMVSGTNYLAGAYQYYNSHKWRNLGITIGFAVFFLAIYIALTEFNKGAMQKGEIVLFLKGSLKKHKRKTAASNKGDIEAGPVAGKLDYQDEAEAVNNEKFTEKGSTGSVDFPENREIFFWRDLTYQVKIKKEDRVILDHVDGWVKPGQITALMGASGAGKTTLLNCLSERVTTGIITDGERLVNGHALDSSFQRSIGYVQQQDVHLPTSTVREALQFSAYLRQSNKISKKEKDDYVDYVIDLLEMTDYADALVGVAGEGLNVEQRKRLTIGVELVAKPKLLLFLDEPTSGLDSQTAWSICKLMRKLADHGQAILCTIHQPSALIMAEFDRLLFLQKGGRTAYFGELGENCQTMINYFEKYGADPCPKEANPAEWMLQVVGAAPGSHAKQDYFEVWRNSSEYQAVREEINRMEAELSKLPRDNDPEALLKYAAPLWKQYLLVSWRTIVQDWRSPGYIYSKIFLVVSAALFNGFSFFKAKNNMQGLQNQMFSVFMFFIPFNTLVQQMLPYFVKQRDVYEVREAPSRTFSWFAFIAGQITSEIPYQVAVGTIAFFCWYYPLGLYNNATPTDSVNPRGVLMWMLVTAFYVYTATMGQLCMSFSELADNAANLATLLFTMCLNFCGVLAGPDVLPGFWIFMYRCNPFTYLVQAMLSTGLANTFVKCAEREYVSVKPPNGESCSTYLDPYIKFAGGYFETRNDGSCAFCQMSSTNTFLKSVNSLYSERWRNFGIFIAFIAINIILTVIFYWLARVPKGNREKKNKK
# Sequence of S. cerevisiae plasma membrane H+-ATPase (Pma1p) (Saccharomyces cerevisiae) (P05030 whole entry): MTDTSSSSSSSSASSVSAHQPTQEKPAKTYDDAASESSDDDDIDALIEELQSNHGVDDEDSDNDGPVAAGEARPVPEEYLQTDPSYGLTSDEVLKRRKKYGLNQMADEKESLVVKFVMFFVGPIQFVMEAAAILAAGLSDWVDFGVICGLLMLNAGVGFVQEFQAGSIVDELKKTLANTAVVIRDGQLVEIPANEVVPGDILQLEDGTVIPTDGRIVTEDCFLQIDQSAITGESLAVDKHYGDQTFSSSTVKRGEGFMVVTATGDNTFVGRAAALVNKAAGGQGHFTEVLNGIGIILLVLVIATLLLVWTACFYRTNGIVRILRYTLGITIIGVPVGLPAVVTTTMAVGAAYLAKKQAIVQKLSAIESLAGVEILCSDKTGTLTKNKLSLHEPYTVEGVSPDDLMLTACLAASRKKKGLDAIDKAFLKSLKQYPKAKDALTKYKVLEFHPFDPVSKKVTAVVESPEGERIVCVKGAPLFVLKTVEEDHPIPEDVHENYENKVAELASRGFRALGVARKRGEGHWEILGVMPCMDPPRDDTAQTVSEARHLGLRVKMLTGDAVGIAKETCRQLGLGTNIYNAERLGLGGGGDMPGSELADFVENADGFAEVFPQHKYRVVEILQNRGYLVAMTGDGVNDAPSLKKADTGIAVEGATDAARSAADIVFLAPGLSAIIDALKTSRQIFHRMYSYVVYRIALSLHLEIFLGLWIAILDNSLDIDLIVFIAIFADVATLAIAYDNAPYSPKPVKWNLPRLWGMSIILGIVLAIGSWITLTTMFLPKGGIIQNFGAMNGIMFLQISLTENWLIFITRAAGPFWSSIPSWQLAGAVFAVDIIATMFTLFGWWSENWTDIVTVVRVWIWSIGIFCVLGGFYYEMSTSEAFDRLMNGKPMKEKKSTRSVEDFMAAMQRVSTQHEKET
substance,measurement,setting,value
KN20 (D-NH2-asparagine-tryptophan-tryptophan-lysine-valine-arginine-arginine-arginine-CONH2 with a single Mtr substituent) (peptide),fold higher inhibitory concentration for Cdr1p ATPase than for Pdr5p ATPase,[1],2.7 fold
same,inhibition of oligomycin sensitive ATPase activity of AD1002 plasma membranes (I50),[1],8 µM
same,inhibition of S. cerevisiae plasma membrane H+-ATPase (I50),[2],10 µM
same,inhibition of oligomycin sensitive ATPase activity of plasma membranes from the AD124567 yeast strain overexpressing Pdr5p (I50),[3],3 µM
